Results taken from US5849493, “Screening assay for compounds stimulating somatostatin transcription factor -1 binding to an STF-1 binding site” (Research Development Foundation).

Experiments:
STF-1 (IPF1/IDX-1/PDX1) [1] = biological target: T1, STF-1 (IPF1/IDX-1/PDX1) (UniProt P52947 P52947:1-283); experiment: EMSA; conditions: tags: GST fusion (pGEX3X, E. coli), GST removable by factor Xa; label: 32P
Procedure: (§1) Gel mobility shift assays were performed exactly as described previously (20) using 0.1 ng of end-labeled double stranded oligonucleotide whose sequences are presented in FIG. 2C. For off-rate analysis, the TSEII probe was first incubated with the proteins at room temperature for 30 minutes, then a 1000-fold excess of unlabeled TSEII oligonucleotide was added and aliquots were loaded at various time points on a running gel. In supershift assays, TU6 nuclear cell extract was preincubated with 1 µl of Pbx (11) or STF-antiserum (20) for 15 minutes at room temperature before adding the TSEII probe.
(§2) To determine whether Pbx and STF-1 can bind cooperatively to other STF-1 target sites besides TSEII, gel shift assays were performed with the recombinant STF-1 and Pbx proteins on the somatostatin TSEI or insulin P and Flat elements, sites which bind STF-1 and which are required for islet cell restricted expression of the rat somatostatin and insulin I genes, respectively, in pancreatic cells (FIG. 2D and FIG. 2E). In contrast to the TSEII element (FIG. 2D, lanes 1–4), no heteromeric STF-1-Pbx complex was observed on the TSEI, P or FLAT elements. Indeed, heteromeric STF-1 complexes are also undetectable when the TSEI, P, or FLAT elements are used in gel shift assays of crude pancreatic cell extracts (data not shown) (20).

STF-1 + Pbx1 heterodimer [2] = biological target: T2, STF-1 + Pbx1 heterodimer (UniProt P52947;P40424 P52947:1-283,P40424:1-430); experiment: EMSA; no heteromeric complex; conditions: tags: STF-1 recombinant from E. coli; Pbx1 in vitro translated in reticulocyte lysate; label: 32P
Procedure: as §1, §2

STF-1 + Pbx1 heterodimer [3] = biological target: T2, STF-1 + Pbx1 heterodimer; experiment: EMSA; no heteromeric complex; no synergy in reporter assay; conditions: tags: STF-1 recombinant from E. coli; Pbx1 in vitro translated in reticulocyte lysate; label: 32P
Procedure: as §1
as §2, with “(20). […]” for “(20).”

[4] = biological target: STF-1 FPWMK to AAGGQ mutant (UniProt P52947 P52947:1-283, FPWMK to AAGGQ); experiment: EMSA; wild-type binding activity; conditions: label: 32P
STF-1 (IPF1/IDX-1/PDX1) [5] = biological target: T1, STF-1 (IPF1/IDX-1/PDX1); experiment: EMSA; high affinity site; conditions: tags: GST fusion (pGEX3X, E. coli), GST removable by factor Xa; label: 32P
STF-1 + Pbx1 heterodimer [6] = biological target: T2, STF-1 + Pbx1 heterodimer; experiment: EMSA; minimal effect on cooperativity; conditions: tags: STF-1 recombinant from E. coli; Pbx1 in vitro translated in reticulocyte lysate; label: 32P
Text: Gel mobility shift assay using TSE II oligonucleotide plus STF-1 and/or Pbx as indicated over each lane. TNT, control lysate. […] Off-rate analysis of STF-1 and STF-1 Pbx complexes using somatostatin TSE II oligonucleotide as probe. Time (in minutes) after addition of excess unlabeled TSE II oligo as indicated. Complexes C1 and C2, corresponding to STF-1 monomer and STF-1/PBX heterodimer, respectively, as indicated. […] TSEII, wild-type TSE II oligonucleotide. P and FLAT, insulin I promoter elements which recognize STF-1 with high affinity. TSEI, somatostatin promoter element which binds STF-1. PBX, in vitro translated PBX protein added to binding reactions; STF, full length recombinant STF-1 protein. […] Brackets indicate consensus TAAT motifs which were targeted for mutagenesis. […] Transient transfection assay of GC cells using STF-1 and E2A-Pbx effector plasmids as indicated below each bar. […] Activities were normalized to co-transfected RSV-CAT control plasmid.
as §1, with “In supershift assays, TU6 nuclear cell extract was preincubated with 1 µl of Pbx (11) or STF-antiserum (20) for 15 minutes at room temperature before adding the TSEII probe.” left out

T2 sequence (P52947 whole entry, chain 1 of 2): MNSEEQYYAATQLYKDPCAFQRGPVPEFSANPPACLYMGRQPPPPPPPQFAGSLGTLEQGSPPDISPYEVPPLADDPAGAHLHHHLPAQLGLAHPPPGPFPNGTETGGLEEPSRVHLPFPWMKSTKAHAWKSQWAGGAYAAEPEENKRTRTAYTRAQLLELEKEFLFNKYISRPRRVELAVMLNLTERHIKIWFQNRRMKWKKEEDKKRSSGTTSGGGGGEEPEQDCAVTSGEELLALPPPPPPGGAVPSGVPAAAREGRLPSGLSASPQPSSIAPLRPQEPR
T2 sequence (P40424 whole entry, chain 2 of 2): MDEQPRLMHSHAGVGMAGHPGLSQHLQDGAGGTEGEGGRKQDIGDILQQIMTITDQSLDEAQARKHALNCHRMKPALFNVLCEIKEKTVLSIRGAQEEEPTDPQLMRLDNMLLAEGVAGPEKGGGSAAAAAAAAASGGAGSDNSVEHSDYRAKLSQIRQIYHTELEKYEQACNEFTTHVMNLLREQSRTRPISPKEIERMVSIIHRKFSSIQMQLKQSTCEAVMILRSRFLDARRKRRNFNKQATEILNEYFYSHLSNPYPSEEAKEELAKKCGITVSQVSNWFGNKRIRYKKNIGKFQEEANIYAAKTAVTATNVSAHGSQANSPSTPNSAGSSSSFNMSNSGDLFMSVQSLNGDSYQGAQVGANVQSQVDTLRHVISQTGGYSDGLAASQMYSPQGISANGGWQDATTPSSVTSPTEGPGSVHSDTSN
T1 sequence (P52947 whole entry, the tested form may be a part, one chain of several): as the sequence (P52947 whole entry, chain 1 of 2) above
Chain of STF-1 FPWMK to AAGGQ mutant (P52947 other isoform, or with tags, fused parts or gaps FPWMK to AAGGQ | mutant): as the sequence (P52947 whole entry, chain 1 of 2) above, with F119A, P120A, W121G, M122G, K123Q counted along it

B1: somatostatin TSEI (dsDNA)
DNA 1: GATCTTGCGAGGCTAATGGTGCG
DNA 2: GTACCGCACCATTAGCCTCGCAA
What does the source list for B1?
binding result (STF-1 (IPF1/IDX-1/PDX1) [1]): binds; binding result (STF-1 + Pbx1 heterodimer [2]): no binding

B2: insulin I P element (dsDNA)
DNA 1: GATCTAGAGCCCTTAATGGGCCAAA
DNA 2: GATCTTTGGCCCATTAAGGGCTCTA
Does B2 bind (STF-1 + Pbx1 heterodimer [3])?
Result: no binding

Does B2 bind [4]?
Result: binds

Does B2 bind (STF-1 (IPF1/IDX-1/PDX1) [5])?
Result: binds

B3: TSEII M3 (dsDNA)
DNA 1: GATCTCAGTAATTATACATGCA
DNA 2: GTACTGCATGTATAATTACTGA
Does B3 bind (STF-1 + Pbx1 heterodimer [6])?
Result: binds
